Laboratory results taken from US20040071694A1 (published 2004).
Residue numbers refer to the chain shown, from its start.

B1: ABT2-SCX-022 (antibody, V domains shown)
VH: QVQLVESGGGVVQPGRSLRLSCAASGFTFSSYGMHWVRQAPGKGLEWVVVISYDGSNKYYADSVKGRFTISRDNSKNTLYLQMNSLRVEDTAVYYCARDHGGRYVYDYGMDVWGQGTTVTVSS
VL: DIQMTQSPSSVSASVGDRVSITCRASQGISSWLAWYQQKPGKAPTLLIYAASSLQRGVPSRFSGSGSGTDFTLTISSLQPEDFATYFCQQANSFPFTFGPGTKVDIK
B2: Ab198 (antibody, human IgG2, V domains shown)
VH: B1 VH with A23V, V49A
VL: B1 VL with V15I, S53T
notes: Human antibody from XenoMouse
B3: ABT2-SCX-267 (antibody, V domains shown)
VH: B1 VH with V49A, R98K
VL: B1 VL with S30G, K42Q, S76N, I106V
B4: ABT2-SCX-254 (antibody, V domains shown)
VH: QVQLVESGGGVVQPGRSLRLSCAASGFTFSSYGMHWVRQAPGKGLEWVAVIWFDGNNKFYADSVKGRFTISRDNSKNTLYLQMNSLRVEDTAVYYCARGGSYWDYWGQGTLVTVSS
VL: DIVMTQTPLFSFVMIGQPASISCRSRQSLVHSDGNTYLNWLQQRPGQPPRLLIYKTSNRFSGVPDRFSGSGAGTDFTLKISRVEAEDVGVYYCMQATQFPITFGQGTRLEIK
B5: ABT2-SCX-054 (antibody, V domains shown)
VH: B4 VH with S31K, I51L, F53Y, N56S, F59Y, V88A, G100P, S101Y, W103F
VL: not shown
B6: Ab12 (antibody, human IgG2, V domains shown)
VH: QVQLQESGPGLVKPSETLSLTCTVSGASISSYYWSWIRQPPGKGLEWIGYIYYSGSTNYNPSLKSRVTISVDTSKNQFSLKLRSVTAADTAVYYCARERLGIGDYWGQGTLVTVSS
VL: DIQLTQSPSSLSASVGDRVTITCRASQGIRNDLGWYQQKPGKAPKRLIYAASSLQSGVPSRFSGSGSGTEFTLTISSLQPEDFATYYCLQHNTYPPTFGQGTKVEIK
notes: Human antibody from XenoMouse; also called ABT2-SCX-012; AB-ABT2-XG2-012

How the values were obtained:
[1] = biological target: T1, biotinylated EpoR (Abbott CHO cell derived ref.# RB69084:4) (UniProt P19235 25-250, limits assumed, biotinylated with biotin-NHS (sites not given)); test: ELISA, HEK 293 supernatant titrated 1:2 on biotin-EpoR captured on streptavidin plates
T1 construct: also called biotin EpoR; biotin-EpoR
T1 sequence (looked up): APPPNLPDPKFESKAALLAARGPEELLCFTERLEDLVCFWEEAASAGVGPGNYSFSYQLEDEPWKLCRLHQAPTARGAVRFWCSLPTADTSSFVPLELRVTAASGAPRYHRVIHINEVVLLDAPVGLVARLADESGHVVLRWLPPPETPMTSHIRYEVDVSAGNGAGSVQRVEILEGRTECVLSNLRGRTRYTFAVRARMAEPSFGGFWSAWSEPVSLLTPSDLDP

[2] = biological target: T2, soluble human EPO receptor (human, UniProt P19235 25-250); test: SPR (Biacore 2000), antibody immobilized on chip, soluble receptor 10-200 nM injected
T2 construct: extracellular domain; Printed only as 'soluble human EPO receptor'
T2 sequence (looked up): T1 sequence (looked up)
Method: Immobilizations of antibody were performed using the default immobilization program in the Biacore software package. Antibodies were diluted to 10 ug/mL in the supplied acetate buffers to prescreen for the appropriate pH at which to conduct the immobilizations. For immobilizations, antibodies were diluted into the appropriate acetate buffer (10 mM acetate pH 4.0) and coupled directly to the chip surface using standard EDC chemistry at three different protein levels (500, 1000, and 1500 RU). The fourth flow cell was mock coupled with EDC to cap the carboxyl groups and provide a background surface as a negative control.
Binding studies were performed by successive injections of varying concentrations of soluble human EPO receptor over the chip surface (500 RU immobilized protein). […]
Data were fit to the models available in the BiaEvaluation 3.0.2 software package (Biacore). […] Dissociation constants were calculated directly from fitting to the Langmuir binding model. For the bivalent analyte model, the dissociation constants were calculated indirectly using the calculated values for the kinetic dissociation and kinetic association constants, kd and kₐ.

peptide SE-3 = biological target: T3, peptide SE-3 (human); test: ELISA on plate-coated peptide SE-3
T3 construct: also called SE-3 peptide
T3 peptide: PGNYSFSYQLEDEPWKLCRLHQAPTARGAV
Method: Plates were blocked for 30 minutes at room temperature with 100 ul of 5% BSA in PBS (Gibco (Invitrogen (Carlsbad, Calif.)) Cat.#10010). After removal of blocking solution, 50 ul of Ab12 at 5 ug/ml in PBS with 1% BSA was added to wells and plates were incubated at room temperature for 2 hours. Plates were washed three times using a Skatron 400 Plate Washer with PBS/0.05% Tween 20 and 50 ul of secondary antibody diluted in PBS/0.25% BSA/0.05% Tween 20 added to the wells. For Ab12, goat anti-human IgG (Fc)-HRP (Caltag (Burlingame, Calif.) Cat.#H10507) diluted 1:1000 was used and for Ab 71A (available from the American Type Culture Collection HB 11689, also described in U.S. Pat. No. 6,319,499), goat anti mouse IgG (Fc)-HRP (Jackson Laboratories (West Grove, Pa.) Cat.#115-035-164) diluted 1:5000 was used. After a 1 hour incubation at room temperature, plates were washed three times as before and 50 ul of OPD Developing Reagent (Sigma #P9187) added to each well. Color development was stopped by addition of 50 ul of 1N HCl to the wells and optical density measured at 490 nm on a Victor 1420 Multi-Label Counter.

[3] = biological target: T4, full length recombinant human EPO receptor (human, UniProt P19235 25-508); test: cell-based or functional assay
T4 sequence: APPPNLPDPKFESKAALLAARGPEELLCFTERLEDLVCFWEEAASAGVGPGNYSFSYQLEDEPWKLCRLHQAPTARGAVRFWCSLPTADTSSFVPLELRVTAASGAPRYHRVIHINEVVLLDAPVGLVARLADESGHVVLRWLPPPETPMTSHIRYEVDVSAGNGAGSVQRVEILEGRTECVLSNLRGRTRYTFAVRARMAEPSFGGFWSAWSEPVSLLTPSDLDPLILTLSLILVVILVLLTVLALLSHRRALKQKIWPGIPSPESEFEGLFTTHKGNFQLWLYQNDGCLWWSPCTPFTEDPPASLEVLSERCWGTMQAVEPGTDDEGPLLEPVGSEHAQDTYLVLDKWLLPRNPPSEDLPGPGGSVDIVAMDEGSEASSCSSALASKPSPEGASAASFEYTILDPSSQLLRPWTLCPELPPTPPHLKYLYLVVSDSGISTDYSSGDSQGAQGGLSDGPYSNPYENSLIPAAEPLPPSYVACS

Binder | Binding (dilution of supernatant) [1] | Kd [2] | binding result (peptide SE-3) | proliferation of F36E cells after storage of Ab12 at 4 C, compared with the EPO control [3]
B1 | > 64 dilution 1:n |  |  | 
B2 |  | 13.9 nM | no binding | 
B3 | > 64 dilution 1:n |  |  | 
B4 | 8 dilution 1:n |  |  | 
B5 | > 64 dilution 1:n |  |  | 
B6 |  | 17.5 nM | no binding (tested: 5 ug/ml) | ~10 fold
